Among the data in paper PMC13031973 (Nature Communications, 2026) are Kd values, retold here.

In assay [1] the target is T1, purified proteasome subunit RPN1 (PSMD2) (human, UniProt Q13200 1-908). In words: SPR.
Assay [2] deals with T1, purified proteasome subunit RPN1 (PSMD2). In words: ITC.

T1 sequence (Q13200 whole entry): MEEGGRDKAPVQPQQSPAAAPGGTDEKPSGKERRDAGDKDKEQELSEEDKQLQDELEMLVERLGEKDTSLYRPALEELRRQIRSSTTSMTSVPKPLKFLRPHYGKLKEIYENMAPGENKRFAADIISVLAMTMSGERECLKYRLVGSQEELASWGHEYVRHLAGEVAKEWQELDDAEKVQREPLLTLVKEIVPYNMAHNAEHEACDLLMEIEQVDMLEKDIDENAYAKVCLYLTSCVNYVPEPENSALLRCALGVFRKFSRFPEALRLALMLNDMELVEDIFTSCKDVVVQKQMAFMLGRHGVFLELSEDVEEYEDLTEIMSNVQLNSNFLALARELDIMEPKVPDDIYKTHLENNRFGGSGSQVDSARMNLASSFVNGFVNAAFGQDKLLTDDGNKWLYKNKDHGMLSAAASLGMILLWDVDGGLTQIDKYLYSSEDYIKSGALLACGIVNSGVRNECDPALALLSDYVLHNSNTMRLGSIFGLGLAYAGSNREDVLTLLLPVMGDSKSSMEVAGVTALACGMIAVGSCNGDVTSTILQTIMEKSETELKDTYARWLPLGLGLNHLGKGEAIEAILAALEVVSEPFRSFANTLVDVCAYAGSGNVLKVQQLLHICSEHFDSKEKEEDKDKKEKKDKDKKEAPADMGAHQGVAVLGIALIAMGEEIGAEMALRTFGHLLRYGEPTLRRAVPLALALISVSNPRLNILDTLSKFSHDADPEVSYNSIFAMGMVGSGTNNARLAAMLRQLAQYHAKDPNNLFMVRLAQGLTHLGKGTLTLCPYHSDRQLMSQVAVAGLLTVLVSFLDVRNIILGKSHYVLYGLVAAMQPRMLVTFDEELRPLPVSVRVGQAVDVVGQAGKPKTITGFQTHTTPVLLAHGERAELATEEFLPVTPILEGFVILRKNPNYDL

B1: MIDN(337-432) (domain or fragment)
chain: SPASPAPDLAPRTTSCEKLTAAPSASLLQGQSQIRMCKPPGDRLRQTENRATRCKVERLQLLLQQKRLRRKARRDARGPYHWSPSRKAGRSDSSSS
Turning to B1, the Kd in assay [1] was 663 nM; in assay [2], about 146 nM.

B2: MIDN(337-468) (domain or fragment)
chain: SPASPAPDLAPRTTSCEKLTAAPSASLLQGQSQIRMCKPPGDRLRQTENRATRCKVERLQLLLQQKRLRRKARRDARGPYHWSPSRKAGRSDSSSSGGGGSPSEASGLGLDFEDSVWKPEVNPDIKSEFVVA
Consider B2, for which the Kd was 390 nM in assay [1] and about 130 nM in assay [2].
